Test results taken from doi:10.1101/2023.06.21.546012 (bioRxiv, 2023).

T1: Tom40 (S. cerevisiae (endogenous in the …, UniProt P23644 1-387))
T1 sequence: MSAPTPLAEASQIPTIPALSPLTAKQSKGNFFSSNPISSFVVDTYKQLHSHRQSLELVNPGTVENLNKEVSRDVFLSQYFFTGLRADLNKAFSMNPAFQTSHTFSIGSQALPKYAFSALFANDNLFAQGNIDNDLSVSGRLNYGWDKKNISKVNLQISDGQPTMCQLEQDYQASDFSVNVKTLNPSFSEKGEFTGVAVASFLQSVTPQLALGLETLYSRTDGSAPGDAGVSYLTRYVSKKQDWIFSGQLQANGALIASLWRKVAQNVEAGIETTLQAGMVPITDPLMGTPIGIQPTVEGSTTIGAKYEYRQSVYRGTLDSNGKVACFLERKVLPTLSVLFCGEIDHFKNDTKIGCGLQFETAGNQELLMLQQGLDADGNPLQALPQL


Target: T1, Tom40
Assay: cryo-EM structure

binding result | Binder
binds | Tom22 with a C-terminal His10 tag (natural protein) MVELTEIKDDVVQLDEPQFSRNQAIVEEKASATNNDVVDDEDDSDSDFEDEFDENETLLDRIVALKDIVPPGKRQTISNFFGFTSSFVRNAFTKSGNLAWTLTTTALLLGVPLSLSILAEQQLIEMEKTFDLQSDANNILAQGEKDAAATAN
binds | Tom6 (natural protein) MDGMFAMPGAAAGAASPQQPKSRFQAFKESPLYTIALNGAFFVAGVAFIQSPLMDMLAPQL
binds | Tom7 (natural protein) MSFLPSFILSDESKERISKILTLTHNVAHYGWIPFVLYLGWAHTSNRPNFLNLLSPLPSV
binds | MFGLPQQEVSEEEKRAHQEQTEKTLKQAAYVAAFLWVSPMIWHLVKKQWK (natural protein) [Tom5]
